Data from EP4714976A1.

Tests used:
[1] = target: extracellular domain of the FGFR2b protein (NP_075259.4) (UniProt P21802); test: phage ELISA
[2] = target: extracellular domain of FGFR2c protein (Example 1) (UniProt P21802); test: phage ELISA
extracellular domain of FGFR2c protein (Example 1), sequence (P21802 22-377): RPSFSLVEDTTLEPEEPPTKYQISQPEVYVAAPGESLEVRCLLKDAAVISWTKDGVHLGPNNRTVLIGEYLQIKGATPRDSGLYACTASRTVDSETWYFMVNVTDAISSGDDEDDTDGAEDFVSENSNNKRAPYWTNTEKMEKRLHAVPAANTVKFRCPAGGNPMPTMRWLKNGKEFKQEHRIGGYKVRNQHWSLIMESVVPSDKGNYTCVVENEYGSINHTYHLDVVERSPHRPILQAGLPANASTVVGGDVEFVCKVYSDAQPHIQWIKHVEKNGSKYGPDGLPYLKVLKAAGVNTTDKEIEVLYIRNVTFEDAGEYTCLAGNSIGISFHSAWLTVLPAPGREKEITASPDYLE

extracellular domain of the FGFR2b protein (NP_075259.4), sequence (P21802 other isoform, or with tags, fused parts or gaps): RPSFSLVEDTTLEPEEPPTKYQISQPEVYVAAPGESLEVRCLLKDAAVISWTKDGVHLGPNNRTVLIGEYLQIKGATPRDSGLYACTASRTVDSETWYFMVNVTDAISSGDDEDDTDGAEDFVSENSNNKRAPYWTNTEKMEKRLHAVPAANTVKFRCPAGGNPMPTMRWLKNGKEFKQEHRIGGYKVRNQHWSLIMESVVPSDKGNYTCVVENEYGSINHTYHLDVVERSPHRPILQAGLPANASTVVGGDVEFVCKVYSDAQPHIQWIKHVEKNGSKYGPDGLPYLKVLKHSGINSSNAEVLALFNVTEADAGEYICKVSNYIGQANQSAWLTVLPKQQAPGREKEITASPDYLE

Negative control (Tables 1 and 2) (antibody)
OD (450 nm) value [1]: 0.024
OD (450 nm) value [2]: 0.045
